Results taken from patent US20140087995A1 (published 2014).
Numbered stars: 1 amine (or outer) side, 2 acyl side, 3 side chain; on linkers, the order of the positions; unused ones are H or OH. Bridge positions count the residues as written; N and C are the ends. Side chains are listed from the residue outwards. Ends that are not written are not given here. * marks the point of attachment. C20 diacid = O=C(O)CCCCCCCCCCCCCCCCCCC(=O)*; γGlu = O=C(O)[C@H](CCC(=O)[*:2])N[*:1]; AEEA = NCCOCCOCC(=O)O

T1: human amylin receptor (amylin 3(a) receptor: human calcitonin receptor coexpressed with RAMP-3) (human, UniProt P30988 25-474; O60896 24-148)
T1 sequence (looked up) 1: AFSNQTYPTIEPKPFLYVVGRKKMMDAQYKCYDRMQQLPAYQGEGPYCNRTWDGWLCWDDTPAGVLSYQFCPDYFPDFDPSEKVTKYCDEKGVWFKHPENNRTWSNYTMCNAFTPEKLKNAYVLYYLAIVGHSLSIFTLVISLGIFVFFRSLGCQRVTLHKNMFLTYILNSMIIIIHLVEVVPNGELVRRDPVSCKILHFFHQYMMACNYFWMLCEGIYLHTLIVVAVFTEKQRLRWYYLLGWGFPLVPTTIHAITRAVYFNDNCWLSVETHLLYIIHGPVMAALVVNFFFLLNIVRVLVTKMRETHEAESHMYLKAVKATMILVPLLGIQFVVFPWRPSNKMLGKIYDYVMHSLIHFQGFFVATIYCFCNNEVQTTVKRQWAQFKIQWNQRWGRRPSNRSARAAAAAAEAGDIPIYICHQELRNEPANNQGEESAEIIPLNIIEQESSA
T1 sequence (looked up) 2: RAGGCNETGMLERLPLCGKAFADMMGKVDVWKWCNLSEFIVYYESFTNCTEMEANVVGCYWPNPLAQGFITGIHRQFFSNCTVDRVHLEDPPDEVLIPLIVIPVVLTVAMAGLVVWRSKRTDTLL

T2: human calcitonin receptor (human, UniProt P30988 25-474)
T2 sequence (looked up): T1 sequence (looked up) 1

B1: N^ε1-[(4S)-4-carboxy-4-[[(4S)-4-carboxy-4-(19-carboxynonadecanoylamino)butanoyl]amino]butanoyl]-[Arg17,Pro21,Pro27,His34]-h-amylin (peptide)
peptide: K([γGlu-γGlu-C20 diacid])CNTATCATQRLANFLRHSSPNFGAIPSSTNVGHNTY-NH2
modifications: disulfide 2-7; N-terminus assumed
SMILES: CC[C@H](C)[C@H](NC(=O)[C@H](C)NC(=O)CNC(=O)[C@H](Cc1ccccc1)NC(=O)[C@H](CC(N)=O)NC(=O)[C@@H]1CCCN1C(=O)[C@H](CO)NC(=O)[C@H](CO)NC(=O)[C@H](Cc1c[nH]cn1)NC(=O)[C@H](CCCNC(=N)N)NC(=O)[C@H](CC(C)C)NC(=O)[C@H](Cc1ccccc1)NC(=O)[C@H](CC(N)=O)NC(=O)[C@H](C)NC(=O)[C@H](CC(C)C)NC(=O)[C@H](CCCNC(=N)N)NC(=O)[C@H](CCC(N)=O)NC(=O)[C@@H](NC(=O)[C@H](C)NC(=O)[C@@H]1CSSC[C@H](NC(=O)[C@@H](N)CCCCNC(=O)CC[C@H](NC(=O)CC[C@H](NC(=O)CCCCCCCCCCCCCCCCCCC(=O)O)C(=O)O)C(=O)O)C(=O)N[C@@H](CC(N)=O)C(=O)N[C@@H]([C@@H](C)O)C(=O)N[C@@H](C)C(=O)N[C@@H]([C@@H](C)O)C(=O)N1)[C@@H](C)O)C(=O)N1CCC[C@H]1C(=O)N[C@@H](CO)C(=O)N[C@@H](CO)C(=O)N[C@H](C(=O)N[C@@H](CC(N)=O)C(=O)N[C@H](C(=O)NCC(=O)N[C@@H](Cc1c[nH]cn1)C(=O)N[C@@H](CC(N)=O)C(=O)N[C@H](C(=O)N[C@@H](Cc1ccc(O)cc1)C(N)=O)[C@@H](C)O)C(C)C)[C@@H](C)O
notes: also called compound 86
B2: N^ε1-[(4S)-4-carboxy-4-[[(4S)-4-carboxy-4-(19-carboxynonadecanoylamino)butanoyl]amino]butanoyl]-[Glu14,Arg17,Pro21,Pro27,Pro34,His35]-h-amylin (peptide)
peptide: K([γGlu-γGlu-C20 diacid])CNTATCATQRLAEFLRHSSPNFGAIPSSTNVGPHTY-NH2
modifications: disulfide 2-7 (inferred)
B3: N^ε1-[(4S)-4-carboxy-4-[[(4S)-4-carboxy-4-(19-carboxynonadecanoylamino)butanoyl]amino]butanoyl]-[His14,Arg17,Pro21,Pro27]-h-amylin (peptide)
peptide: K([γGlu-γGlu-C20 diacid])CNTATCATQRLAHFLRHSSPNFGAIPSSTNVGSNTY-NH2
modifications: disulfide 2-7; N-terminus assumed
SMILES: CC[C@H](C)[C@H](NC(=O)[C@H](C)NC(=O)CNC(=O)[C@H](Cc1ccccc1)NC(=O)[C@H](CC(N)=O)NC(=O)[C@@H]1CCCN1C(=O)[C@H](CO)NC(=O)[C@H](CO)NC(=O)[C@H](Cc1c[nH]cn1)NC(=O)[C@H](CCCNC(=N)N)NC(=O)[C@H](CC(C)C)NC(=O)[C@H](Cc1ccccc1)NC(=O)[C@H](Cc1c[nH]cn1)NC(=O)[C@H](C)NC(=O)[C@H](CC(C)C)NC(=O)[C@H](CCCNC(=N)N)NC(=O)[C@H](CCC(N)=O)NC(=O)[C@@H](NC(=O)[C@H](C)NC(=O)[C@@H]1CSSC[C@H](NC(=O)[C@@H](N)CCCCNC(=O)CC[C@H](NC(=O)CC[C@H](NC(=O)CCCCCCCCCCCCCCCCCCC(=O)O)C(=O)O)C(=O)O)C(=O)N[C@@H](CC(N)=O)C(=O)N[C@@H]([C@@H](C)O)C(=O)N[C@@H](C)C(=O)N[C@@H]([C@@H](C)O)C(=O)N1)[C@@H](C)O)C(=O)N1CCC[C@H]1C(=O)N[C@@H](CO)C(=O)N[C@@H](CO)C(=O)N[C@H](C(=O)N[C@@H](CC(N)=O)C(=O)N[C@H](C(=O)NCC(=O)N[C@@H](CO)C(=O)N[C@@H](CC(N)=O)C(=O)N[C@H](C(=O)N[C@@H](Cc1ccc(O)cc1)C(N)=O)[C@@H](C)O)C(C)C)[C@@H](C)O
notes: also called compound 92
B4: N^ε1-[(4S)-4-carboxy-4-(19-carboxynonadecanoylamino)butanoyl]-[Arg17,Pro21,Pro27,His34]-h-amylin (peptide)
peptide: K([γGlu-C20 diacid])CNTATCATQRLANFLRHSSPNFGAIPSSTNVGHNTY-NH2
modifications: disulfide 2-7; N-terminus assumed
SMILES: CC[C@H](C)[C@H](NC(=O)[C@H](C)NC(=O)CNC(=O)[C@H](Cc1ccccc1)NC(=O)[C@H](CC(N)=O)NC(=O)[C@@H]1CCCN1C(=O)[C@H](CO)NC(=O)[C@H](CO)NC(=O)[C@H](Cc1c[nH]cn1)NC(=O)[C@H](CCCNC(=N)N)NC(=O)[C@H](CC(C)C)NC(=O)[C@H](Cc1ccccc1)NC(=O)[C@H](CC(N)=O)NC(=O)[C@H](C)NC(=O)[C@H](CC(C)C)NC(=O)[C@H](CCCNC(=N)N)NC(=O)[C@H](CCC(N)=O)NC(=O)[C@@H](NC(=O)[C@H](C)NC(=O)[C@@H]1CSSC[C@H](NC(=O)[C@@H](N)CCCCNC(=O)CC[C@H](NC(=O)CCCCCCCCCCCCCCCCCCC(=O)O)C(=O)O)C(=O)N[C@@H](CC(N)=O)C(=O)N[C@@H]([C@@H](C)O)C(=O)N[C@@H](C)C(=O)N[C@@H]([C@@H](C)O)C(=O)N1)[C@@H](C)O)C(=O)N1CCC[C@H]1C(=O)N[C@@H](CO)C(=O)N[C@@H](CO)C(=O)N[C@H](C(=O)N[C@@H](CC(N)=O)C(=O)N[C@H](C(=O)NCC(=O)N[C@@H](Cc1c[nH]cn1)C(=O)N[C@@H](CC(N)=O)C(=O)N[C@H](C(=O)N[C@@H](Cc1ccc(O)cc1)C(N)=O)[C@@H](C)O)C(C)C)[C@@H](C)O
notes: also called compound 77
B5: N^ε1-[2-[2-[2-[[2-[2-[2-[[(4S)-4-carboxy-4-(19-carboxynonadecanoylamino)butanoyl]amino]ethoxy]ethoxy]acetyl]amino]ethoxy]ethoxy]acetyl]-[Arg17,Pro21,Pro27,His34 … (peptide)
peptide: K([AEEA-AEEA-γGlu-C20 diacid])CNTATCATQRLANFLRHSSPNFGAIPSSTNVGHNTY-NH2
modifications: disulfide 2-7; N-terminus assumed
SMILES: CC[C@H](C)[C@H](NC(=O)[C@H](C)NC(=O)CNC(=O)[C@H](Cc1ccccc1)NC(=O)[C@H](CC(N)=O)NC(=O)[C@@H]1CCCN1C(=O)[C@H](CO)NC(=O)[C@H](CO)NC(=O)[C@H](Cc1c[nH]cn1)NC(=O)[C@H](CCCNC(=N)N)NC(=O)[C@H](CC(C)C)NC(=O)[C@H](Cc1ccccc1)NC(=O)[C@H](CC(N)=O)NC(=O)[C@H](C)NC(=O)[C@H](CC(C)C)NC(=O)[C@H](CCCNC(=N)N)NC(=O)[C@H](CCC(N)=O)NC(=O)[C@@H](NC(=O)[C@H](C)NC(=O)[C@@H]1CSSC[C@H](NC(=O)[C@@H](N)CCCCNC(=O)COCCOCCNC(=O)COCCOCCNC(=O)CC[C@H](NC(=O)CCCCCCCCCCCCCCCCCCC(=O)O)C(=O)O)C(=O)N[C@@H](CC(N)=O)C(=O)N[C@@H]([C@@H](C)O)C(=O)N[C@@H](C)C(=O)N[C@@H]([C@@H](C)O)C(=O)N1)[C@@H](C)O)C(=O)N1CCC[C@H]1C(=O)N[C@@H](CO)C(=O)N[C@@H](CO)C(=O)N[C@H](C(=O)N[C@@H](CC(N)=O)C(=O)N[C@H](C(=O)NCC(=O)N[C@@H](Cc1c[nH]cn1)C(=O)N[C@@H](CC(N)=O)C(=O)N[C@H](C(=O)N[C@@H](Cc1ccc(O)cc1)C(N)=O)[C@@H](C)O)C(C)C)[C@@H](C)O
notes: also called compound 97
B6: N^ε1-[2-[2-[2-(19-carboxynonadecanoylamino)ethoxy]ethoxy]acetyl]-[Arg17,Pro21,Pro27,His34]-h-amylin (peptide)
peptide: K([AEEA-C20 diacid])CNTATCATQRLANFLRHSSPNFGAIPSSTNVGHNTY-NH2
modifications: disulfide 2-7; N-terminus assumed
SMILES: CC[C@H](C)[C@H](NC(=O)[C@H](C)NC(=O)CNC(=O)[C@H](Cc1ccccc1)NC(=O)[C@H](CC(N)=O)NC(=O)[C@@H]1CCCN1C(=O)[C@H](CO)NC(=O)[C@H](CO)NC(=O)[C@H](Cc1c[nH]cn1)NC(=O)[C@H](CCCNC(=N)N)NC(=O)[C@H](CC(C)C)NC(=O)[C@H](Cc1ccccc1)NC(=O)[C@H](CC(N)=O)NC(=O)[C@H](C)NC(=O)[C@H](CC(C)C)NC(=O)[C@H](CCCNC(=N)N)NC(=O)[C@H](CCC(N)=O)NC(=O)[C@@H](NC(=O)[C@H](C)NC(=O)[C@@H]1CSSC[C@H](NC(=O)[C@@H](N)CCCCNC(=O)COCCOCCNC(=O)CCCCCCCCCCCCCCCCCCC(=O)O)C(=O)N[C@@H](CC(N)=O)C(=O)N[C@@H]([C@@H](C)O)C(=O)N[C@@H](C)C(=O)N[C@@H]([C@@H](C)O)C(=O)N1)[C@@H](C)O)C(=O)N1CCC[C@H]1C(=O)N[C@@H](CO)C(=O)N[C@@H](CO)C(=O)N[C@H](C(=O)N[C@@H](CC(N)=O)C(=O)N[C@H](C(=O)NCC(=O)N[C@@H](Cc1c[nH]cn1)C(=O)N[C@@H](CC(N)=O)C(=O)N[C@H](C(=O)N[C@@H](Cc1ccc(O)cc1)C(N)=O)[C@@H](C)O)C(C)C)[C@@H](C)O
notes: also called compound 91

target: T1, human amylin receptor (amylin 3(a) …); experiment: cell-based or functional assay

Row | Binder | hAmylin-R funct. EC50 (pM)
1 | B1 | 298
2 | B2 | 172
3 | B3 | 85
4 | B4 | 145
5 | B5 | 356
6 | B6 | 40

target: T2, human calcitonin receptor; experiment: cell-based or functional assay

Row | Binder | hCTR funct. EC50 (pM) | Ratio hCT/hAmylin funct.
7 | B1 | 19200 | 
8 | B2 | 2830 | 16.4
9 | B3 | 2380 | 28
10 | B4 | 5400 | 
11 | B5 | 11800 | 33
12 | B6 | 1480 | 36.9
